Laboratory results reported in paper PMC11294625, “The kinesin-3 KIF1C undergoes liquid-liquid phase separation for accumulation of specific transcripts at the cell periphery”.

T1: KIF1C(CC4+IDR)-mNG (Homo sapiens, UniProt O43896 785-1103)
T1 sequence: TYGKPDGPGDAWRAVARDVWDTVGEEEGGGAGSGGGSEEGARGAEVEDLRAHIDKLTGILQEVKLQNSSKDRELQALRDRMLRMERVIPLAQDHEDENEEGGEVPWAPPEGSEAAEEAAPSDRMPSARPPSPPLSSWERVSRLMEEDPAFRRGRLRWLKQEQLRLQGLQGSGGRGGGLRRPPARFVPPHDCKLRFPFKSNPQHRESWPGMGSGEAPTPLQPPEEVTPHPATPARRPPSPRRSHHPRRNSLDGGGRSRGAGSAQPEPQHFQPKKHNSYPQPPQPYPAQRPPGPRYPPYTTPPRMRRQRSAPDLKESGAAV


What was measured:
KIF1C(CC4+IDR)-mNG [1] = biological target: T1, KIF1C(CC4+IDR)-mNG; assay: in vitro condensate recruitment (fluorescence microscopy); 15-60 nM RNA, 100 nM protein, 100 mM NaCl; selectively enriched in condensates; 100 nM KIF1C(CC4+IDR)-mNG in 100 mM NaCl buffer, no crowding agent; pH and temperature of the assay not given in the material; details: protein: recombinant; tags: C-terminal mNeonGreen; His-SUMO removed by TEV; chain copies: 2; label: 5'-Cy5; single strand
KIF1C(CC4+IDR)-mNG [2] = biological target: T1, KIF1C(CC4+IDR)-mNG; assay: in vitro condensate recruitment (fluorescence microscopy); 120-600 nM RNA, 100 nM protein, 100 mM NaCl; enriched (condensates inhibited at uM RNA); 100 nM KIF1C(CC4+IDR)-mNG in 100 mM NaCl buffer, no crowding agent; pH and temperature of the assay not given in the material; details: protein: recombinant; tags: C-terminal mNeonGreen; His-SUMO removed by TEV; chain copies: 2; label: 5'-Cy5; single strand

Row | Binder | binding result (KIF1C(CC4+IDR)-mNG [1]) | binding result (KIF1C(CC4+IDR)-mNG [2])
1 | GUGUGUGUGUGU (ssRNA, methylation at each nucleotide (printed mG/mU, probably 2'-O-methyl)) [GU-rich RNA oligo, Cy5-(GU)6] | binds | –
2 | AAAAAAAAAAAAA (ssRNA, methylation at each nucleotide (printed mA, probably 2'-O-methyl)) [polyA RNA oligo, Cy5-A13] | – | binds
